Reference: patent US20150147318A1 (ZOETIS SERVICES, published 2015)
Positions count from the first letter of the chain named. Numbers in names are those of the source.

How the values were obtained:
[1] = target: T1, recombinant canine Nerve Growth Factor (Canis lupus familiaris NGF) (canine (Canis lupus familiaris), UniProt Q29074 110-229 (pig entry), limits assumed); test: SPR, Biacore T100, dog NGF; run 11/29; comment 'Agg?'
T1 construct: also called canine NGF; Dog NGF
T1 chain: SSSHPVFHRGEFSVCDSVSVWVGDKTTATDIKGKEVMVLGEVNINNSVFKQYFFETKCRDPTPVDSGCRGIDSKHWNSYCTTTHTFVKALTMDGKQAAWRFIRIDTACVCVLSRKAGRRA

[2] = target: T1, recombinant canine Nerve Growth Factor …; test: SPR, Biacore T100, dog NGF; run 11/24; comment 'Agg?'
[3] = target: T1, recombinant canine Nerve Growth Factor …; test: SPR, 1:1 binding fit, canine NGF
[4] = target: T1, recombinant canine Nerve Growth Factor …; test: SPR, Biacore T100, dog NGF; run 11/29
[5] = target: T1, recombinant canine Nerve Growth Factor …; test: SPR, Biacore T100, dog NGF; run 11/22
[6] = target: T1, recombinant canine Nerve Growth Factor …; test: cell-based or functional assay
[7] = target: T1, recombinant canine Nerve Growth Factor …; test: SPR trkA inhibition: mAb pre-incubated with NGF, binding of NGF to trkA measured in RU
[8] = target: T1, recombinant canine Nerve Growth Factor …; test: SPR, Biacore T100, dog NGF; run 11/24

B1: LTM135 (HC G103A, LC H32N) (antibody, V domains shown)
VH: EVQLVESGGDLARPGGSLKLSCVVSGFSLIGYDINWVRQAPGKGLQWVTMIWGDGTTDYNSALKSRFTVSRDNAMNTVYLQMNSLRVEDTAVYYCARGGYYYATSYYFDYWGQGTLVTVSS
VL: DIVMTQTPLSLSVSPGETASISCRASQDISNNLNWFRQKPGQSPQRLIYYISRFHSGVPDRFSGSGSGTDFTLRISRVEADDTGVYYCQQSKTLPYTFGAGTKLEIK
notes: Point mutant of canE3M65 as full IgG
Kd [1]: 0.0061 nM
Kd [2]: 0.138 nM
Kd [3]: 1.69 nM
koff [3]: 4.23e-05 s⁻¹
kon [3]: 25100 M⁻¹ s⁻¹

B2: LTM construct 110 (HC Y101W, G103A; LC K92D) (antibody, V domains shown)
VH: B1 VH with Y101W
VL: B1 VL with N32H, K92D
notes: as for B1
Kd [1]: 0.942 nM
Kd [2]: 0.00326 nM

B3: LTM construct 34 (HC Y100W, LC D28S, H32N) (antibody, V domains shown)
VH: B1 VH with Y100W, A103G
VL: B1 VL with D28S
notes: Point mutant of canE3M65 as full IgG; Constant regions are not restated
Kd [4]: 0.885 nM
Kd [5]: 0.639 nM

B4: SSM-8 (LC E3M, HC SSMwtHCD54T, L63I) (antibody, V domains shown)
VH: B1 VH with D54T, L63I, A103G
VL: B1 VL with N32H
Kd [3]: 41.8 nM
koff [3]: 0.000173 s⁻¹
kon [3]: 4130 M⁻¹ s⁻¹

B5: LTM construct 35 (HC Y100W, LC D28S, H32N, K92H) (antibody, V domains shown)
VH: B1 VH with Y100W, A103G
VL: B1 VL with D28S, K92H
notes: as for B3
Kd [4]: 0.81 nM
Kd [5]: 0.237 nM

B6: SSM-3 (LC E3M, HC SSMwtHCG31E) (antibody, V domains shown)
VH: B1 VH with G31E, A103G
VL: B1 VL with N32H
Kd [3]: 41.4 nM
koff [3]: 0.000167 s⁻¹
kon [3]: 4040 M⁻¹ s⁻¹

B7: SSM-2 (LC E3M, HC SSMwtHCG31Q) (antibody, V domains shown)
VH: B1 VH with G31Q, A103G
VL: B1 VL with N32H
notes: IgG expressed in HEK293; constant regions are not restated
Kd [3]: 14.2 nM
koff [3]: 0.000114 s⁻¹
kon [3]: 8080 M⁻¹ s⁻¹

B8: LTM construct 33 (HC Y100W, LC *D28S, NH31HN) (antibody, V domains shown)
VH: B1 VH with Y100W, A103G
VL: B1 VL with D28S, N31H
notes: as for B1
binding result [5]: no binding

B9: LTM construct 32 (HC Y100W, LC D28S) (antibody, V domains shown)
VH: B1 VH with Y100W, A103G
VL: B1 VL with D28S, N32H
notes: Point mutant of canE3M65, converted into full IgG and expressed in HEK293; The canine constant regions are not restated
Kd [5]: 2.25 nM

B10: SSM-22 (LC SSMwtLCR53S, HC SSMwtHCD54T, G31E) (antibody, V domains shown)
VH: B1 VH with G31E, D54T, A103G
VL: B1 VL with N32H, R53S
Kd [3]: 249 nM
koff [3]: 0.000296 s⁻¹
kon [3]: 1190 M⁻¹ s⁻¹

B11: SSM-34 (LC SSM135LCR53S, HC135 (G103A)) (antibody, V domains shown)
VH: B1 VH
VL: B1 VL with R53S
notes: The light chain is the LTM135 template (E3M H32N) plus R53S
Kd [3]: 3.08 nM
koff [3]: 0.000192 s⁻¹
kon [3]: 62400 M⁻¹ s⁻¹

B12: LTM construct 36 (HC Y100W, LC K92D) (antibody, V domains shown)
VH: B1 VH with Y100W, A103G
VL: B1 VL with N32H, K92D
notes: as for B3
Kd [5]: 5.5 nM

B13: SSM58 (CAN-SSM58-VH, CAN-SSME3M-VL) (antibody, V domains shown)
VH: B1 VH with G31E, Y101W
VL: B1 VL with D28S, R53S, K92H
EC50, pERK inhibition, PC-12 (Rat Neuronal), pre-incubation 1 hour, 2/23/11 (SSM58) [6]: 1.05 nM
EC50, pERK inhibition, PC-12 (Rat Neuronal), pre-incubation 1 hour, 3/26/11 (SSM58) [6]: 0.65 nM
EC50, pERK inhibition, huTrkA (CHO), pre-incubation 1 hour, 3/26/11 (SSM58) [6]: 0.79 nM
EC50, pERK inhibition, huTrkA (CHO), pre-incubation 1 hour, 3/31/11 (SSM58) [6]: 0.86 nM
EC50, pERK inhibition, huTrkA (CHO), pre-incubation 6 hour, 3/31/11 (SSM58) [6]: 0.72 nM
Fold Potency Difference versus RN911, pERK inhibition, PC-12 (Rat Neuronal), pre-incubation 1 hour, 2/23/11 (SSM58) [6]: 1.6 fold
Fold Potency Difference versus RN911, pERK inhibition, PC-12 (Rat Neuronal), pre-incubation 1 hour, 3/26/11 (SSM58) [6]: 1.4 fold
Fold Potency Difference versus RN911, pERK inhibition, huTrkA (CHO), pre-incubation 1 hour, 3/26/11 (SSM58) [6]: 1.7 fold
Fold Potency Difference versus RN911, pERK inhibition, huTrkA (CHO), pre-incubation 1 hour, 3/31/11 (SSM58) [6]: 1.4 fold
Fold Potency Difference versus RN911, pERK inhibition, huTrkA (CHO), pre-incubation 6 hour, 3/31/11 (SSM58) [6]: 1.3 fold
Ki [7]: 4.2 nM

B14: LTM construct 44 (HC Y100W, LC S91E) (antibody, V domains shown)
VH: B1 VH with Y100W, A103G
VL: B1 VL with N32H, S91E
notes: as for B3
binding result [8]: no binding

B15: SSM57 (CAN-SSM57-VH, CAN-SSME3M-VL) (antibody, V domains shown)
VH: B1 VH with G31Q, Y101W
VL: B1 VL with D28S, R53S, K92H
notes: also called PF 06442590; PF-06442591
EC50, pERK inhibition, PC-12 (Rat Neuronal), pre-incubation 1 hour, 2/23/11 (SSM57) [6]: 1.08 nM
EC50, pERK inhibition, PC-12 (Rat Neuronal), pre-incubation 1 hour, 3/26/11 (SSM57) [6]: 0.65 nM
EC50, pERK inhibition, huTrkA (CHO), pre-incubation 1 hour, 3/26/11 (SSM57) [6]: 0.85 nM
EC50, pERK inhibition, huTrkA (CHO), pre-incubation 1 hour, 3/31/11 (SSM57) [6]: 0.86 nM
EC50, pERK inhibition, huTrkA (CHO), pre-incubation 6 hour, 3/31/11 (SSM57) [6]: 0.73 nM
Fold Potency Difference versus RN911, pERK inhibition, PC-12 (Rat Neuronal), pre-incubation 1 hour, 2/23/11 (SSM57) [6]: 1.6 fold
Fold Potency Difference versus RN911, pERK inhibition, PC-12 (Rat Neuronal), pre-incubation 1 hour, 3/26/11 (SSM57) [6]: 1.4 fold
Fold Potency Difference versus RN911, pERK inhibition, huTrkA (CHO), pre-incubation 1 hour, 3/26/11 (SSM57) [6]: 1.8 fold
Fold Potency Difference versus RN911, pERK inhibition, huTrkA (CHO), pre-incubation 1 hour, 3/31/11 (SSM57) [6]: 1.4 fold
Fold Potency Difference versus RN911, pERK inhibition, huTrkA (CHO), pre-incubation 6 hour, 3/31/11 (SSM57) [6]: 1.3 fold
Ki [7]: 4.2 nM

B16: LTM construct 39 (HC Y100W, LC D28S, S91Y) (antibody, V domains shown)
VH: B1 VH with Y100W, A103G
VL: B1 VL with D28S, N32H, S91Y
notes: as for B3
binding result [5]: no binding

B17: LTM construct 111 (HC Y101W, G103A; LC *D28S, NH31HN, S91Y) (antibody, V domains shown)
VH: B1 VH with Y101W
VL: B1 VL with D28S, N31H, S91Y
notes: The '*' is not explained
Kd [1]: 0.0288 nM
Kd [2]: 0.146 nM

B18: SSM66 (CAN-SSM66-VH, CAN-SSME3M-VL) (antibody, V domains shown)
VH: B1 VH with G31E, D54T, Y101W
VL: B1 VL with D28S, R53S, K92H
EC50, pERK inhibition, PC-12 (Rat Neuronal), pre-incubation 1 hour, 2/23/11 (SSM66) [6]: 1.45 nM
EC50, pERK inhibition, PC-12 (Rat Neuronal), pre-incubation 1 hour, 3/26/11 (SSM66) [6]: 0.71 nM
EC50, pERK inhibition, huTrkA (CHO), pre-incubation 1 hour, 3/26/11 (SSM66) [6]: 0.76 nM
EC50, pERK inhibition, huTrkA (CHO), pre-incubation 1 hour, 3/31/11 (SSM66) [6]: 0.94 nM
EC50, pERK inhibition, huTrkA (CHO), pre-incubation 6 hour, 3/31/11 (SSM66) [6]: 0.69 nM
Fold Potency Difference versus RN911, pERK inhibition, PC-12 (Rat Neuronal), pre-incubation 1 hour, 2/23/11 (SSM66) [6]: 2.2 fold
Fold Potency Difference versus RN911, pERK inhibition, PC-12 (Rat Neuronal), pre-incubation 1 hour, 3/26/11 (SSM66) [6]: 1.5 fold
Fold Potency Difference versus RN911, pERK inhibition, huTrkA (CHO), pre-incubation 1 hour, 3/26/11 (SSM66) [6]: 1.6 fold
Fold Potency Difference versus RN911, pERK inhibition, huTrkA (CHO), pre-incubation 1 hour, 3/31/11 (SSM66) [6]: 1.5 fold
Fold Potency Difference versus RN911, pERK inhibition, huTrkA (CHO), pre-incubation 6 hour, 3/31/11 (SSM66) [6]: 1.2 fold
Ki [7]: 4.5 nM

B19: SSM-14 (LC SSMwtLCR53S, HC SSMwtHCG31E) (antibody, V domains shown)
VH: B1 VH with G31E, A103G
VL: B1 VL with N32H, R53S
Kd [3]: 23.6 nM
koff [3]: 0.00812 s⁻¹
kon [3]: 344000 M⁻¹ s⁻¹

B20: LTM construct 38 (HC Y100W, LC D28S, NH31HN, K92D) (antibody, V domains shown)
VH: B1 VH with Y100W, A103G
VL: B1 VL with D28S, N31H, K92D
notes: as for B3
Kd [5]: 2.15 nM

B21: SSM-19 (LC SSMwtLCR53S, HC SSMwtHCD54T, L63I) (antibody, V domains shown)
VH: B1 VH with D54T, L63I, A103G
VL: B1 VL with N32H, R53S
Kd [3]: 37.4 nM
koff [3]: 0.00164 s⁻¹
kon [3]: 43800 M⁻¹ s⁻¹

B22: LTM construct 37 (HC Y100W, LC *D28S, NH31HN, S91Y) (antibody, V domains shown)
VH: B1 VH with Y100W, A103G
VL: B1 VL with D28S, N31H, S91Y
notes: as for B1
Kd [5]: 1.91 nM

B23: LTM construct 43 (HC Y100W, LC K92H) (antibody, V domains shown)
VH: B1 VH with Y100W, A103G
VL: B1 VL with N32H, K92H
notes: as for B3
Kd [8]: 5.67 nM

B24: SSM-13 (LC SSMwtLCR53S, HC SSMwtHCG31Q) (antibody, V domains shown)
VH: B1 VH with G31Q, A103G
VL: B1 VL with N32H, R53S
Kd [3]: 311 nM
koff [3]: 0.00241 s⁻¹
kon [3]: 7750 M⁻¹ s⁻¹

B25: LTM construct 112 (HC Y101W, G103A; LC D28S, NH31HN, K92D) (antibody, V domains shown)
VH: B1 VH with Y101W
VL: B1 VL with D28S, N31H, K92D
notes: as for B1
Kd [1]: 0.0152 nM
Kd [2]: 0.00165 nM

B26: SSM-36 (LC SSM135LCR53S, HC SSM135HCG31E) (antibody, V domains shown)
VH: B1 VH with G31E
VL: B1 VL with R53S
notes: Both chains are built on the LTM135 template (HC G103A, LC H32N)
Kd [3]: 40.2 nM
koff [3]: 0.00033 s⁻¹
kon [3]: 8200 M⁻¹ s⁻¹

B27: LTM construct 133 (HC G103A, LC K92H) (antibody, V domains shown)
VH: B1 VH
VL: B1 VL with N32H, K92H
notes: as for B1
Kd [1]: 0.011 nM
Kd [2]: 0.00133 nM

B28: SSM-17 (LC SSMwtLCR53S, HC SSMwtHCD54T) (antibody, V domains shown)
VH: B1 VH with D54T, A103G
VL: B1 VL with N32H, R53S
Kd [3]: 69.1 nM
koff [3]: 0.0014 s⁻¹
kon [3]: 20300 M⁻¹ s⁻¹
